Measurements from patent publication US20240034792A1.

Target: Human PD-1 expressed on CHO-K1 cells (CHO-K1/hPD-1) (human) (UniProt Q15116)
Experiment: FACS, CHO-K1/hPD-1 cells

Sequence of Human PD-1 expressed on CHO-K1 cells (CHO-K1/hPD-1) (human) (Q15116 25-288): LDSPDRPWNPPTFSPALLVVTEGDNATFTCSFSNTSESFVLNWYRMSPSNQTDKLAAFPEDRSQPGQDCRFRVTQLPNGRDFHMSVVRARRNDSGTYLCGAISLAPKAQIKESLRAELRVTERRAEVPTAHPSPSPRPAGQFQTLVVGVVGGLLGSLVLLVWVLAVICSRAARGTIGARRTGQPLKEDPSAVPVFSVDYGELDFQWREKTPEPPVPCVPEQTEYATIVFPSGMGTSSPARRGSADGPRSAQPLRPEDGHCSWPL

Substance: hIgG1 (antibody)
- Maximum (MFI): 49300
